Experimental data reported in article PMC4607316 (Nature, 2015).

Biological target: syntaxin-1A (endogenous, cultured mouse neurons) (mouse (endogenous in cultured …, UniProt O35526 1-288))
Assay: co-IP

syntaxin-1A (endogenous, cultured mouse neurons) (mouse, sequence (O35526 whole entry): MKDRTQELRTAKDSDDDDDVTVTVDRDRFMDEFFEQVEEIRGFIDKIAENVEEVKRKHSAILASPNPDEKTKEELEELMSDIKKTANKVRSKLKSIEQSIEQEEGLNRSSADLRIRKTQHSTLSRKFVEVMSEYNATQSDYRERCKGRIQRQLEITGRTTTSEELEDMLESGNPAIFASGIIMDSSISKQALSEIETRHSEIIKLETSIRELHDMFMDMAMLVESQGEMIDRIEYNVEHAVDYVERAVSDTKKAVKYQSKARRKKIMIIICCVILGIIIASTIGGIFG

| Binder | reduction of co-immunoprecipitated Syt1 against Syt1 WT |
| --- | --- |
| Syt1 E295A, Y338W (natural protein, rat, UniProt P21707 1-421, looked up) MVSASHPEALAAPVTTVATLVPHNATEPASPGEGKEDAFSKLKQKFMNELHKIPLPPWALIAIAIVAVLLVVTCCFCVCKKCLFKKKNKKKGKEKGGKNAINMKDVKDLGKTMKDQALKDDDAETGLTDGEEKEEPKEEEKLGKLQYSLDYDFQNNQLLVGIIQAAELPALDMGGTSDPYVKVFLLPDKKKKFETKVHRKTLNPVFNEQFTFKVPYSELGGKTLVMAVYDFDRFSKHDIIGEFKVPMNTVDFGHVTEEWRDLQSAEKEEQEKLGDICFSLRYVPTAGKLTVVILAAKNLKKMDVGGLSDPYVKIHLMQNGKRLKKKKTTIKKNTLNPWYNESFSFEVPFEQIQKVQVVVTVLDYDKIGKNDAIGKVFVGYNSTGAELRHWSDMLANPRRPIAQWHTLQVEEEVDAMLAVKK | ~50% |
| Syt1 R398Q, R399Q (natural protein, rat, UniProt P21707 1-421, looked up) MVSASHPEALAAPVTTVATLVPHNATEPASPGEGKEDAFSKLKQKFMNELHKIPLPPWALIAIAIVAVLLVVTCCFCVCKKCLFKKKNKKKGKEKGGKNAINMKDVKDLGKTMKDQALKDDDAETGLTDGEEKEEPKEEEKLGKLQYSLDYDFQNNQLLVGIIQAAELPALDMGGTSDPYVKVFLLPDKKKKFETKVHRKTLNPVFNEQFTFKVPYSELGGKTLVMAVYDFDRFSKHDIIGEFKVPMNTVDFGHVTEEWRDLQSAEKEEQEKLGDICFSLRYVPTAGKLTVVILEAKNLKKMDVGGLSDPYVKIHLMQNGKRLKKKKTTIKKNTLNPYYNESFSFEVPFEQIQKVQVVVTVLDYDKIGKNDAIGKVFVGYNSTGAELRHWSDMLANPQQPIAQWHTLQVEEEVDAMLAVKK | ~50% |
| Syt1 R281A, R398A, R399A (natural protein, rat, UniProt P21707 1-421, looked up) MVSASHPEALAAPVTTVATLVPHNATEPASPGEGKEDAFSKLKQKFMNELHKIPLPPWALIAIAIVAVLLVVTCCFCVCKKCLFKKKNKKKGKEKGGKNAINMKDVKDLGKTMKDQALKDDDAETGLTDGEEKEEPKEEEKLGKLQYSLDYDFQNNQLLVGIIQAAELPALDMGGTSDPYVKVFLLPDKKKKFETKVHRKTLNPVFNEQFTFKVPYSELGGKTLVMAVYDFDRFSKHDIIGEFKVPMNTVDFGHVTEEWRDLQSAEKEEQEKLGDICFSLAYVPTAGKLTVVILEAKNLKKMDVGGLSDPYVKIHLMQNGKRLKKKKTTIKKNTLNPYYNESFSFEVPFEQIQKVQVVVTVLDYDKIGKNDAIGKVFVGYNSTGAELRHWSDMLANPAAPIAQWHTLQVEEEVDAMLAVKK | ~50% |
